The values below come from US20160201097A1, “Materials and Methods of Producing 7-Carbon Monomers” (INVISTA North America S.á.r.l., priority 2014, published 2016).

Test [1] in a line: carboxylate reductase activity: N7-acetyl-7-aminoheptanoate to N7-acetyl-7-aminoheptanal (NADPH consumption, A340). The conditions noted are these: purified enzyme enhanced by sfp gene product, 2 mM N7-acetyl-7-aminoheptanoate, pH 7.5, room temperature, 20 min; against the empty vector control (FIG. 10). In kind it is biochemical. As to the method:
The activity of each of the N-terminal His-tagged carboxylate reductases of SEQ ID NOs: 3, 5, and 6 (see Examples 2 and 3, and FIG. 6) for converting N7-acetyl-7-aminoheptanoate to N7-acetyl-7-aminoheptanal was assayed in triplicate in a buffer composed of a final concentration of 50 mM HEPES buffer (pH=7.5), 2 mM N7-acetyl-7-aminoheptanoate, 10 mM MgCl2, 1 mM ATP, and 1 mM NADPH. The assays were initiated by adding purified carboxylate reductase and phosphopantetheine transferase or the empty vector control to the assay buffer containing the N7-acetyl-7-aminoheptanoate then incubated at room temperature for 20 min. The consumption of NADPH was monitored by absorbance at 340 nm.

Test [2] can be described thus: carboxylate reductase activity: pimelate to pimelate semialdehyde (NADPH consumption, A340). The conditions noted are these: purified enzyme enhanced by sfp gene product, 2 mM pimelate, pH 7.5, room temperature, 20 min; against the empty vector control (FIG. 8). Type of test: biochemical. As to the method: A nucleotide sequence encoding a HIS-tag was added to the nucleic acid sequences from Segniliparus rugosus and Segniliparus rotundus that encode the carboxylate reductases of SEQ ID NOs: 4 (EFV11917.1) and 6 (ADG98140.1), respectively (see FIG. 6), such that N-terminal HIS tagged carboxylate reductases could be produced. Each of the modified genes was cloned into a pET Duet expression vector along with a sfp gene encoding a HIS-tagged phosphopantetheine transferase from Bacillus subtilis, both under the T7 promoter. Each expression vector was transformed into a BL21[DE3] E. coli host and the resulting recombinant E. coli strains were cultivated at 37° C. in a 250 mL shake flask culture containing 50 mL LB media and antibiotic selection pressure, with shaking at 230 rpm. Each culture was induced overnight at 37° C. using an auto-induction media.
The pellet from each induced shake flask culture was harvested via centrifugation. Each pellet was resuspended and lysed via sonication, and the cell debris was separated from the supernatant via centrifugation. […]
Enzyme activity assays (i.e., from pimelate to pimelate semialdehyde) were performed in triplicate in a buffer composed of a final concentration of 50 mM HEPES buffer (pH=7.5), 2 mM pimelate, 10 mM MgCl2, 1 mM ATP and 1 mM NADPH. […] The consumption of NADPH was monitored by absorbance at 340 nm. […]

B1: SEQ ID NO: 5: Mycobacterium massiliense carboxylate reductase, N-terminal HIS tagged (protein)
chain: MTNETNPQQEQLSRRIESLRESDPQFRAAQPDPAVAEQVLRPGLHLSEAIAALMTGYAERPALGERARELVIDQDGRTTLRLLPRFDTTTYGELWSRTTSVAAAWHHDATHPVKAGDLVATLGFTSIDYTVLDLAIMILGGVAVPLQTSAPASQWTTILAEAEPNTLAVSIELIGAAMESVRATPSIKQVVVFDYTPEVDDQREAFEAASTQLAGTGIALETLDAVIARGAALPAAPLYAPSAGDDPLALLIYTSGSTGAPKGAMHSENIVRRWWIREDVMAGTENLPMIGLNFMPMSHIMGRGTLTSTLSTGGTGYFAASSDMSTLFEDMELIRPTALALVPRVCDMVFQRFQTEVDRRLASGDTASAEAVAAEVKADIRDNLFGGRVSAVMVGSAPLSEELGEFIESCFELNLTDGYGSTEAGMVFRDGIVQRPPVIDYKLVDVPELGYFSTDKPHPRGELLLKTDGMFLGYYKRPEVTASVFDADGFYMTGDIVAELAHDNIEIIDRRNNVLKLSQGEFVAVATLEAEYANSPVVHQIYVYGSSERSYLLAVVVPTPEAVAAAKGDAAALKTTIADSLQDIAKEIQLQSYEVPRDFIIEPQPFTQGNGLLTGIAKLARPNLKAHYGPRLEQMYAEIAEQQAAELRALHGVDPDKPALETVLKAAQALLGVSSAELAADAHFTDLGGDSLSALSFSDLLRDIFAVEVPVGVIVSAANDLGGVAKFVDEQRHSGGTRPTAETVHGAGHTEIRAADLTLDKFIDEATLHAAPSLPKAAGIPHTVLLTGSNGYLGHYLALEWLERLDKTDGKLIVIVRGKNAEAAYGRLEEAFDTGDTELLAHFRSLADKHLEVLAGDIGDPNLGLDADTWQRLADTVDVIVHPAALVNHVLPYNQLFGPNVVGTAEIIKLAITTKIKPVTYLSTVAVAAYVDPTTFDEESDIRLISAVRPIDDGYANGYGNAKWAGEVLLREAHDLCGLPVAVFRSDMILAHSRYTGQLNVPDQFTRLILSLIATGIAPGSFYQAQTTGERPLAHYDGLPGDFTAEAITTLGTQVPEGSEGFVTYDCVNPHADGISLDNFVDWLIEAGYPIARIDNYTEWFTRFDTAIRGLSEKQKQHSLLPLLHAFEQPSAAENHGVVPAKRFQHAVQAAGIGPVGQDGTTDIPHLSRRLIVKYAKDLEQLGLL
modifications: N-terminal His tag; Mycobacterium massiliense
notes: Mycobacterium massiliense carboxylate reductase, N-terminal HIS tagged
With B1, the “acceptance of N7-acetyl-7-aminoheptanoate as substrate (NADPH consumption)” value in test [1] is reported as “accepted N7-acetyl-7-aminoheptanoate as substrate”.

B2: SEQ ID NO: 4: Segniliparus rugosus carboxylate reductase, N-terminal HIS tagged (protein, listed as Segniliparus rugosus)
chain: MGDGEERAKRFFQRIGELSATDPQFAAAAPDPAVVEAVSDPSLSFTRYLDTLMRGYAERPALAHRVGAGYETISYGELWARVGAIAAAWQADGLAPGDFVATVGFTSPDYVAVDLAAARSGLVSVPLQAGASLAQLVGILEETEPKVLAASASSLEGAVACALAAPSVQRLVVFDLRGPDASESAADERRGALADAEEQLARAGRAVVVETLADLAARGEALPEAPLFEPAEGEDPLALLIYTSGSTGAPKGAMYSQRLVSQLWGRTPVVPGMPNISLHYMPLSHSYGRAVLAGALSAGGTAHFTANSDLSTLFEDIALARPTFLALVPRVCEMLFQESQRGQDVAELRERVLGGRLLVAVCGSAPLSPEMRAFMEEVLGFPLLDGYGSTEALGVMRNGIIQRPPVIDYKLVDVPELGYRTTDKPYPRGELCIRSTSLISGYYKRPEITAEVFDAQGYYKTGDVMAEIAPDHLVYVDRSKNVLKLSQGEFVAVAKLEAAYGTSPYVKQIFVYGNSERSFLLAVVVPNAEVLGARDQEEAKPLIAASLQKIAKEAGLQSYEVPRDFLIETEPFTTQNGLLSEVGKLLRPKLKARYGEALEARYDEIAHGQADELRALRDGAGQRPVVETVVRAAVAISGSEGAEVGPEANFADLGGDSLSALSLANLLHDVFEVEVPVRIIIGPTASLAGIAKHIEAERAGASAPTAASVHGAGATRIRASELTLEKFLPEDLLAAAKGLPAADQVRTVLLTGANGWLGRFLALEQLERLARSGQDGGKLICLVRGKDAAAARRRIEETLGTDPALAARFAELAEGRLEVVPGDVGEPKFGLDDAAWDRLAEEVDVIVHPAALVNHVLPYHQLFGPNVVGTAEIIRLAITAKRKPVTYLSTVAVAAGVEPSSFEEDGDIRAVVPERPLGDGYANGYGNSKWAGEVLLREAHELVGLPVAVFRSDMILAHTRYTGQLNVPDQFTRLVLSLLATGIAPKSFYQQGAAGERQRAHYDGIPVDFTAEAITTLGAEPSWFDGGAGFRSFDVFNPHHDGVGLDEFVDWLIEAGHPISRIDDHKEWFARFETAVRGLPEAQRQHSLLPLLRAYSFPHPPVDGSVYPTGKFQGAVKAAQVGSDHDVPHLGKALIVKYADDLKALGLL
modifications: N-terminal His tag
notes: Segniliparus rugosus carboxylate reductase, N-terminal HIS tagged
As to B2, in test [2], the “acceptance of pimelate as substrate (NADPH consumption)” value is given as “accepted pimelate as substrate”.
